Legend:
[1] = biological target: somatostatin receptor 3 (pCMV6c-SSTR3); assay: cell-based or functional assay
[2] = biological target: Myc-tagged UNC5H2 (pMyc-UNC5H2) (human) (UniProt Q8IZJ1); assay: cell-based or functional assay
Chain of UniProt Q8IZJ1 (Q8IZJ1 other isoform, or with tags, fused parts or gaps): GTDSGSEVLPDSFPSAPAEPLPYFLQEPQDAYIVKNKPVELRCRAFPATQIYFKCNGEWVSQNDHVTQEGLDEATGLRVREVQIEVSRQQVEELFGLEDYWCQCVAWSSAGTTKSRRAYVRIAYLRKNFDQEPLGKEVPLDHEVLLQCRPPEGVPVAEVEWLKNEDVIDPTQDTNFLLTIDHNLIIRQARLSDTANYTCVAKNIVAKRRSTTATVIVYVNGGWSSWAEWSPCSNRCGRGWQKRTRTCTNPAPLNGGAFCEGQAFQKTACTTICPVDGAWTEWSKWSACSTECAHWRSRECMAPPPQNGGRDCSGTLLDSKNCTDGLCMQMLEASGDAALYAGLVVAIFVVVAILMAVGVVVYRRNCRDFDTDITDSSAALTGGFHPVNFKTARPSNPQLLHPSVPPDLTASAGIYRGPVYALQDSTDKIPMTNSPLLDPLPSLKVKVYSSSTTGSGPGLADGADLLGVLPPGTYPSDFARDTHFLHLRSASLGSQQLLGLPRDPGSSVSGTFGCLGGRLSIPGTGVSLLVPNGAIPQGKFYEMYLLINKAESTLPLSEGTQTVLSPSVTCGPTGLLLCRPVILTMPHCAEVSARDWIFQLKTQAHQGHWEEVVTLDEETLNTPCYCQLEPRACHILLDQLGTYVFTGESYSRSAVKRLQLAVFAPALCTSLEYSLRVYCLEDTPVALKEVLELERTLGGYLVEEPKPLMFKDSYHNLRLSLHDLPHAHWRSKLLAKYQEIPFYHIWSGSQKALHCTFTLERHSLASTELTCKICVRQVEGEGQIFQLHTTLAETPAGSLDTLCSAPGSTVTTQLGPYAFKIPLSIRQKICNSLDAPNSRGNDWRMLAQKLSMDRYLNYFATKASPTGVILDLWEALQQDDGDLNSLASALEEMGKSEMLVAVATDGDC

| decrease in cAMP accumulation in transfected COS7 cells [1] [%] | cAMP accumulation in transfected COS7 cells, Netrin 1 given before SST-14 [2] [%] | Substance |
| --- | --- | --- |
| 32 | – | somatostatin-14 (from UniProt P61278 89-116) (peptide) |
| – | 41 | Netrin 1 (R&D Systems) (ligand) |

From US20060025335A1
